From PMC9068813, “Enhancer RNAs stimulate Pol II pause release by harnessing multivalent interactions to NELF” come the findings set out here.

Settings in all cases: protein: recombinant; tags: His-tag (Ni-NTA purified); copies: 1;1;1;1
Data set [1] concerns the target T1, NELF complex WT (UniProt Q9H3P2;Q8WX92;Q8IXH7;P18615 1-528;1-628;1-590;1-380). Briefly: EMSA (NELF release from PEC); apparent Kd; NELF in PEC on N1; 20 mM Na-HEPES pH 7.4, 100 mM NaCl, 25 mM KCl, 3 mM MgCl2, 2 mM DTT; assembly 30 °C, eRNA incubation 15-20 min at room temperature; 3.5% native PAGE 0.5x TBE at 4 °C; PEC about 0.1 µM NELF 0.15 µM. (In EMSA bound probe runs differently from free probe, usually more slowly.)

Data set [2] concerns the target T1, NELF complex WT. Briefly: EMSA (NELF release from PEC); up to 2.4 µM; 20 mM Na-HEPES pH 7.4, 100 mM NaCl, 25 mM KCl, 3 mM MgCl2, 2 mM DTT; assembly 30 °C, eRNA incubation 15-20 min at room temperature; 3.5% native PAGE 0.5x TBE at 4 °C; PEC about 0.1 µM NELF 0.15 µM.
For data set [3], the target named is T1, NELF complex WT. Briefly: EMSA (NELF release from PEC); DSIF also released at high RNA; 20 mM Na-HEPES pH 7.4, 100 mM NaCl, 25 mM KCl, 3 mM MgCl2, 2 mM DTT; assembly 30 °C, eRNA incubation 15-20 min at room temperature; 3.5% native PAGE 0.5x TBE at 4 °C; PEC about 0.1 µM NELF 0.15 µM.
The target in data set [4] is T1, NELF complex WT. Briefly: EMSA (NELF release from PEC); 20 mM Na-HEPES pH 7.4, 100 mM NaCl, 25 mM KCl, 3 mM MgCl2, 2 mM DTT; assembly 30 °C, eRNA incubation 15-20 min at room temperature; 3.5% native PAGE 0.5x TBE at 4 °C; PEC about 0.1 µM NELF 0.15 µM.
Data set [5] has as its target T1, NELF complex WT. Briefly: size-exclusion chromatography; UV crosslinking-MS (365 nm); isolated NELF; 20 mM Na-HEPES pH 7.4, 100 mM NaCl, 25 mM KCl, 3 mM MgCl2, 2 mM DTT; assembly 30 °C, eRNA incubation 15-20 min at room temperature; 3.5% native PAGE 0.5x TBE at 4 °C; PEC about 0.1 µM NELF 0.15 µM. Background: SEC sorts molecules by how far they enter the pores of the column.

Data set [6] addresses T1, NELF complex WT. Briefly: EMSA (NELF release from PEC); release at about equimolar eRNA; 20 mM Na-HEPES pH 7.4, 100 mM NaCl, 25 mM KCl, 3 mM MgCl2, 2 mM DTT; assembly 30 °C, eRNA incubation 15-20 min at room temperature; 3.5% native PAGE 0.5x TBE at 4 °C; PEC about 0.1 µM NELF 0.15 µM.
Data set [7] addresses T1, NELF complex WT. Briefly: EMSA (NELF release from PEC); 18-fold molar excess; 20 mM Na-HEPES pH 7.4, 100 mM NaCl, 25 mM KCl, 3 mM MgCl2, 2 mM DTT; assembly 30 °C, eRNA incubation 15-20 min at room temperature; 3.5% native PAGE 0.5x TBE at 4 °C; PEC about 0.1 µM NELF 0.15 µM.
For data set [8], the target named is T1, NELF complex WT. Briefly: EMSA (NELF release from PEC); no DSIF release at high RNA; 20 mM Na-HEPES pH 7.4, 100 mM NaCl, 25 mM KCl, 3 mM MgCl2, 2 mM DTT; assembly 30 °C, eRNA incubation 15-20 min at room temperature; 3.5% native PAGE 0.5x TBE at 4 °C; PEC about 0.1 µM NELF 0.15 µM.

T1 sequence (Q9H3P2 whole entry, chain 1 of 4): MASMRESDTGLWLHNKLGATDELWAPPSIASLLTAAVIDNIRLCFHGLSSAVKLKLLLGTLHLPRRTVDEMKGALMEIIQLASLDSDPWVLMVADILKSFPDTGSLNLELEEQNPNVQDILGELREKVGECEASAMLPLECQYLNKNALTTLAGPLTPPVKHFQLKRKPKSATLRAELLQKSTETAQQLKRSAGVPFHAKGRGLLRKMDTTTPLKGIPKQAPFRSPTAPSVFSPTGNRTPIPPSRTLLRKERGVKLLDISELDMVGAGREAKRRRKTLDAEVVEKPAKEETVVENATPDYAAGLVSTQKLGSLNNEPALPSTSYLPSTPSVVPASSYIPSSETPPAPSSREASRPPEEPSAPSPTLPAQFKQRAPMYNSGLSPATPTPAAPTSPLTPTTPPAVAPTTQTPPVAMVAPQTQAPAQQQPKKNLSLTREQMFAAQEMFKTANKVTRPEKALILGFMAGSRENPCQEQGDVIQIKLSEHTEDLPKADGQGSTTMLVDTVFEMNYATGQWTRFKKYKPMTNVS
T1 sequence (Q8WX92 other isoform, or with tags, fused parts or gaps, chain 2 of 4): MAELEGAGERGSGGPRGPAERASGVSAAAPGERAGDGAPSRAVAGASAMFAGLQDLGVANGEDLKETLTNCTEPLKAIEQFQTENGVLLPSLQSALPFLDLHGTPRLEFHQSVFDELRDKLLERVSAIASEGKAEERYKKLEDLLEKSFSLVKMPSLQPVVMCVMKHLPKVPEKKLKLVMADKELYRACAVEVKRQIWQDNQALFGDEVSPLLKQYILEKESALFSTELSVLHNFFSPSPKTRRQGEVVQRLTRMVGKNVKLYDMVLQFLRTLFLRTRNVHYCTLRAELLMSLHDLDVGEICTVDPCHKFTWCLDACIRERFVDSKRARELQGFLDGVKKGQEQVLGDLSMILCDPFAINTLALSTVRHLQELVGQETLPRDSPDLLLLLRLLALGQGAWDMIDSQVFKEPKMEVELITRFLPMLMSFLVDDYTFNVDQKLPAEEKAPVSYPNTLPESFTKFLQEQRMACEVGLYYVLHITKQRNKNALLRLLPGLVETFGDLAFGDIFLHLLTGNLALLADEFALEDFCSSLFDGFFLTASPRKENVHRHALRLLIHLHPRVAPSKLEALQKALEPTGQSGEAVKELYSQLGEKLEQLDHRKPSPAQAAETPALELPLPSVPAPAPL
T1 sequence (Q8IXH7 whole entry, chain 3 of 4): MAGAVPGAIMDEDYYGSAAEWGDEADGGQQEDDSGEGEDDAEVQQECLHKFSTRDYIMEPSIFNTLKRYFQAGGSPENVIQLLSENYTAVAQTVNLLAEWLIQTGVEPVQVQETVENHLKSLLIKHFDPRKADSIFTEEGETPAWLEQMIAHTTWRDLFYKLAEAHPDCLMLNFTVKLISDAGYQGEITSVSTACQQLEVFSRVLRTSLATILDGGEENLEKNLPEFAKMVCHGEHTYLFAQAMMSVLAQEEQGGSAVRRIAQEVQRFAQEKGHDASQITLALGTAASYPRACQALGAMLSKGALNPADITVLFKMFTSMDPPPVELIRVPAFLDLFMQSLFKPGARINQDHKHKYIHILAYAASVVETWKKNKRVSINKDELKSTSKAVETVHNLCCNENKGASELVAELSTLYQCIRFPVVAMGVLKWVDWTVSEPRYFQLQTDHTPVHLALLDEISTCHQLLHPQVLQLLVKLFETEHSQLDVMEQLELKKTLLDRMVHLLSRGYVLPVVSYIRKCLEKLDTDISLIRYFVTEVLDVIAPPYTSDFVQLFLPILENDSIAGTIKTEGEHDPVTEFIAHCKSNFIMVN
T1 sequence (P18615 whole entry, chain 4 of 4): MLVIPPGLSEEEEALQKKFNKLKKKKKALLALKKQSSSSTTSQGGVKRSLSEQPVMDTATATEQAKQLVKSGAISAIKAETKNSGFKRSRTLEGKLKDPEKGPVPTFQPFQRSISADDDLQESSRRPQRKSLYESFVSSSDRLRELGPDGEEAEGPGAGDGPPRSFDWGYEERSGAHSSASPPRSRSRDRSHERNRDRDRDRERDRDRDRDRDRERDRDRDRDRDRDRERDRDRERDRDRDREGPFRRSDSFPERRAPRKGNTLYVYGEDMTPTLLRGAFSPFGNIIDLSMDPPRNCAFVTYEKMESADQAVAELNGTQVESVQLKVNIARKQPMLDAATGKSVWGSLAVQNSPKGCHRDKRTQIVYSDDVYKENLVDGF

As to GCGGUGAGAGUGAUUUUGUAACUCUAAAGUUACAGAGGGUUUUGUUGUGU (ssRNA) [Nr4a1-(a) eRNA 1-50], the Kd with NELF complex WT [1] was found to be 9700 nM.

B1: poly(U) (ssRNA)
RNA: UUUUUUUUUUUUUUUUUUUUUUUUUUUUUUUUUUUUUUUUUUUUUUUUUUUUUUUUUUUUUUUUUUUUUUUUUUUUUUUU
With B1, the binding result with NELF complex WT [2] is given as “no binding”.

B2: poly(UA) (ssRNA)
RNA: UAUAUAUAUAUAUAUAUAUAUAUAUAUAUAUAUAUAUAUAUAUAUAUAUAUAUAUAUAUAUAUAUAUAUAUAUAUAUAUAUAUAUAUAUAUAUAUA
For B2, the binding result in the data set with NELF complex WT [2] was “no binding”.

B3: poly(GA)48, 96 nt (ssRNA)
RNA: GAGAGAGAGAGAGAGAGAGAGAGAGAGAGAGAGAGAGAGAGAGAGAGAGAGAGAGAGAGAGAGAGAGAGAGAGAGAGAGAGAGAGAGAGAGAGAGA
On to B3, for which the binding result in the data set with NELF complex WT [3] is recorded as “binds”.

B4: Arc eRNA 96-200 (structured_RNA)
RNA: CCAGCUGGCAGUAGCCCCCCCAACCCCACCCCUGAUGGAGAACUGCUCCUGUAUGAUCCAGCCCAGUGGGCGCACAGGGAGUUGGUAGGUGGGCACUCAGACUGG
Turning to B4, in the data set with NELF complex WT [4], the binding result was “binds”.

B5: poly(G2A), 96 nt (ssRNA)
RNA: GGAGGAGGAGGAGGAGGAGGAGGAGGAGGAGGAGGAGGAGGAGGAGGAGGAGGAGGAGGAGGAGGAGGAGGAGGAGGAGGAGGAGGAGGAGGAGGA
As to B5, in the data set with NELF complex WT [4], the binding result is listed as “binds”.

B6: Nr4a1-(a) eRNA 1-100 (structured_RNA)
RNA: GCGGUGAGAGUGAUUUUGUAACUCUAAAGUUACAGAGGGUUUUGUUGUGUUUUUAAUCAAGAGCCCUGGUUUUGAUUUGUGGGUAAUCUUUCUUUAAACC
As to B6, in the data set with NELF complex WT [1], the Kd worked out at 140 nM.

B7: Nr4a1-(a) eRNA 1-100, 4SU (structured_RNA)
RNA: GCGGUGAGAGUGAUUUUGUAACUCUAAAGUUACAGAGGGUUUUGUUGUGUUUUUAAUCAAGAGCCCUGGUUUUGAUUUGUGGGUAAUCUUUCUUUAAACC
modifications: 4-thiouridine, 40-80% of U
On to B7, for which the binding result in the data set with NELF complex WT [5] was “binds”.

B8: poly(A) (ssRNA)
RNA: AAAAAAAAAAAAAAAAAAAAAAAAAAAAAAAAAAAAAAAAAAAAAAAAAAAAAAAAAAAAAAAAAAAAAAAAAAAAAAAA
Regarding B8, in the data set with NELF complex WT [2], the binding result is listed as “no binding”.

B9: Arc eRNA 1-200 (structured_RNA)
RNA: AAAACACAGCCGCCAGGGUGGGGGUGGCAGCCUUGAACGCCACCCUCUAACUGGCAUGGGCAUCUGAACUCUCAGCUCUGGGGGUGUCUCAUCGGCCAGCUGGCAGUAGCCCCCCCAACCCCACCCCUGAUGGAGAACUGCUCCUGUAUGAUCCAGCCCAGUGGGCGCACAGGGAGUUGGUAGGUGGGCACUCAGACUGG
Take B9: in the data set with NELF complex WT [6], the binding result is recorded as “binds”.

B10: Arc eRNA 1-200, 4SU (structured_RNA)
RNA: AAAACACAGCCGCCAGGGUGGGGGUGGCAGCCUUGAACGCCACCCUCUAACUGGCAUGGGCAUCUGAACUCUCAGCUCUGGGGGUGUCUCAUCGGCCAGCUGGCAGUAGCCCCCCCAACCCCACCCCUGAUGGAGAACUGCUCCUGUAUGAUCCAGCCCAGUGGGCGCACAGGGAGUUGGUAGGUGGGCACUCAGACUGG
modifications: 4-thiouridine, 40-80% of U
For B10, in the data set with NELF complex WT [5], the binding result is “binds”.

B11: Nr4a1-(b) eRNA 1-200 (structured_RNA)
RNA: AGUAGGGGCAUGGCUCGCCCGAGGCUCGGUGCUGCCCCGCCGCCCGCCGCGUUCCUUCCGGCUUGGUGUUCCGGUGGCGGGACCAGGGAAGGGAAGCUCGGGCCAAAUCCGGUCUCGGGCGAGGUGACAGAAAUUUGGAAUCUGACACCGGAGGAUGGCUGAGCUCCGGCUCCUCUGGGAGUGCAAUUACGGACUUCGCA
As to B11, in the data set with NELF complex WT [6], the binding result was “binds”.

B12: Nr4a1-(a) eRNA 1-200 (structured_RNA)
RNA: GCGGUGAGAGUGAUUUUGUAACUCUAAAGUUACAGAGGGUUUUGUUGUGUUUUUAAUCAAGAGCCCUGGUUUUGAUUUGUGGGUAAUCUUUCUUUAAACCUCGCCCAUUUCCGGCCUGGUGACCUGGGCCACUUUCUCAUGUUGACCCAGAUGAUCCUCAGUAGCAAGAACAAAAGGACAACAGAUGUGGAAACACUCAA
Take B12: the binding result with NELF complex WT [6] was “binds”.

B13: Nr4a1-(a) eRNA 1-200, 4SU (structured_RNA)
RNA: GCGGUGAGAGUGAUUUUGUAACUCUAAAGUUACAGAGGGUUUUGUUGUGUUUUUAAUCAAGAGCCCUGGUUUUGAUUUGUGGGUAAUCUUUCUUUAAACCUCGCCCAUUUCCGGCCUGGUGACCUGGGCCACUUUCUCAUGUUGACCCAGAUGAUCCUCAGUAGCAAGAACAAAAGGACAACAGAUGUGGAAACACUCAA
modifications: 4-thiouridine, <60% of U
With B13, the binding result with NELF complex WT [5] is listed as “binds”.

B14: Nr4a1-(b) eRNA 1-100 (structured_RNA)
RNA: AGUAGGGGCAUGGCUCGCCCGAGGCUCGGUGCUGCCCCGCCGCCCGCCGCGUUCCUUCCGGCUUGGUGUUCCGGUGGCGGGACCAGGGAAGGGAAGCUCG
Regarding B14, the Kd in the data set with NELF complex WT [1] was determined as 2020 nM.

B15: poly(CU) (ssRNA)
RNA: CUCUCUCUCUCUCUCUCUCUCUCUCUCUCUCUCUCUCUCUCUCUCUCUCUCUCUCUCUCUCUCUCUCUCUCUCUCUCUCU
With B15, in the data set with NELF complex WT [2], the binding result is on record as “no binding”.
Turning to AGUAGGGGCAUGGCUCGCCCGAGGCUCGGUGCUGCCCCGCCGCCCGCCGC (structured_RNA) [Nr4a1-(b) eRNA 1-50], the binding result with NELF complex WT [7] is “no binding”.

B16: poly(G2A6), 96 nt (ssRNA)
RNA: GGAAAAAAGGAAAAAAGGAAAAAAGGAAAAAAGGAAAAAAGGAAAAAAGGAAAAAAGGAAAAAAGGAAAAAAGGAAAAAAGGAAAAAAGGAAAAAA
As for B16, the binding result in the data set with NELF complex WT [8] is listed as “binds”.
In the case of AAAACACAGCCGCCAGGGUGGGGGUGGCAGCCUUGAACGCCACCCUCUAA (structured_RNA) [Arc eRNA 1-50], the binding result with NELF complex WT [7] is listed as “no binding”.

B17: poly(GU)40, 80 nt (ssRNA)
RNA: GUGUGUGUGUGUGUGUGUGUGUGUGUGUGUGUGUGUGUGUGUGUGUGUGUGUGUGUGUGUGUGUGUGUGUGUGUGUGUGU
Take B17: the binding result with NELF complex WT [3] is recorded as “binds”.

B18: poly(CA) (ssRNA)
RNA: CACACACACACACACACACACACACACACACACACACACACACACACACACACACACACACACACACACACACACACACACACACACACACACACA
In the case of B18, in the data set with NELF complex WT [2], the binding result is listed as “no binding”.
